Measured values published in patent EP3854411A1 (Rise Biopharmaceuticals, Inc. (Beijing), dated 2021).

Tests used:
CXCR1 = target: T1, CXCR1 (UniProt P25024 1-350, limits assumed); assay: indirect ELISA, ONCO P8-CXCR1 complex formation
T1 construct: The receptor preparation used in the ELISA is not described; also called IL-8R
T1 sequence (looked up): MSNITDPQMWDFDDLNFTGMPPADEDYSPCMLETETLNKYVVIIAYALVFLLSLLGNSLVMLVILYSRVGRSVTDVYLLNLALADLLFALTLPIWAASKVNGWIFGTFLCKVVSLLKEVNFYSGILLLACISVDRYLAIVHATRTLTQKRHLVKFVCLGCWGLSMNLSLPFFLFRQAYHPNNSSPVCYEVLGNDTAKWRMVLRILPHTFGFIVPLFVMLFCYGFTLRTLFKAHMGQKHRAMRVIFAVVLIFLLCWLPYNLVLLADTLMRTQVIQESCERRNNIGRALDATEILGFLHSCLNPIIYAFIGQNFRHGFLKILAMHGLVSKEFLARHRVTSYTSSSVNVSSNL

CXCR2 = target: T2, CXCR2 (UniProt P25025 1-360, limits assumed); assay: indirect ELISA, ONCO P8-CXCR2 complex formation
T2 construct: The receptor preparation used in the ELISA is not described; also called IL-8R
T2 sequence (looked up): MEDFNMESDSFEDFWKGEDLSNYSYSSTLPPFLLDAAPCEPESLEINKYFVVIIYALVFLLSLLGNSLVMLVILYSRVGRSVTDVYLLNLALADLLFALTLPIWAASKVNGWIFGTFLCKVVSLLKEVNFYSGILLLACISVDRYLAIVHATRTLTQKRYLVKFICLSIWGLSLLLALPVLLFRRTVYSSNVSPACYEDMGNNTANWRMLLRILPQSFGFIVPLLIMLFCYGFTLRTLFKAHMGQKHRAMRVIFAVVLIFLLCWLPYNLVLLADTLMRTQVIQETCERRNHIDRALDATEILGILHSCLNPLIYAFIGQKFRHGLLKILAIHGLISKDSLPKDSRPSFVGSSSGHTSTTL

B1: ONCO P-8 (peptide)
chain: GSKELRCQCIRSYSKPFHPKFIKELRVIPASQFCANTEIIVKLSDGRELCLDPKENWVQRVVEKFLKRAENS
notes: also called chemokine receptor antagonistic modified peptide
Kd (CXCR1): 286 nM
Kd (CXCR2): 139 nM
